The target in this experiment is type I Collagen (Sigma). As to the kind of experiment: solid phase assay, biotinylated rBSdrF titrated on collagen-coated wells.

As for “purified recombinant B domain of SdrF (rBSdrF), N-terminal His tag (from UniProt Q9KI14 678-1128)”, the concentration at which maximum binding occurs came to 20 ng/mL.

The values are drawn from patent US20110117099A1.
